Measured values as given in patent US20220251236A1 (Boehringer Ingelheim, published 2022).

Target: T1, human DLL3 (endogenous, on SCLC cell lines NCI-H82 and SHP77 and in SCLC tissue) (human, UniProt Q9NYJ7 27-618)
T1 construct: whole, on cells; also called SCLC cell lines expressing DLL3
T1 sequence (looked up): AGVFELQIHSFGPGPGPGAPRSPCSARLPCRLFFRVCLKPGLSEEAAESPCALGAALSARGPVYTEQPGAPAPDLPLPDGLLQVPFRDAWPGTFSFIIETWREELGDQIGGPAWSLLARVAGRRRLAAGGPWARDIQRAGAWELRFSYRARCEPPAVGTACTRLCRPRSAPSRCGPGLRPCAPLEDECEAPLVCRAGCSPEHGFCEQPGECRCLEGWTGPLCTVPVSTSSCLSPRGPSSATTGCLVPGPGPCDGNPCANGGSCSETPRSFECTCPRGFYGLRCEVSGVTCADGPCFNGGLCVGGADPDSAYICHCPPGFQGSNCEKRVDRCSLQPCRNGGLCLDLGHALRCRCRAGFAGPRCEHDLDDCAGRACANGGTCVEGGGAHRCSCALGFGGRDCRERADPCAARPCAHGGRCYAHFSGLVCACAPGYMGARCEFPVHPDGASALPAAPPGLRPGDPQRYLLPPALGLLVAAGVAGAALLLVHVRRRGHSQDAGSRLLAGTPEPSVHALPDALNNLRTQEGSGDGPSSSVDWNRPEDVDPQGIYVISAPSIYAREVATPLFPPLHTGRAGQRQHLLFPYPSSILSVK
Experiment: flow cytometry titration on NCI-H82 cells, PE anti-human secondary, x-fold over background
Excerpt: Cells (T cells or human SCLC cells) were stained with increasing concentrations of two-step purified DLL3/CD3 binding proteins with increasing concentrations in FACS buffer (PBS/0.5% BSA/0.05% sodium azide). Bound molecules were detected with PE-conjugated anti-human secondary antibody (Sigma-Aldrich, #P8047).

B1: DLL3#5/CD3#1 (bispecific antibody, human IgG1, kappa, lambda, L234A L235A)
chain 1: not shown
chain 2: EAVVTQEPSLTVSPGGTVTLTCRSSTGAVTTSNYANWVQEKPGQLPRGLIGGTNKRAPWVPARFSGSLLGGKAALTLSGAQPEDEAEYFCALWYSNLWVFGGGTKLTVLGQPKAAPSVTLFPPSSEELQANKATLVCLISDFYPGAVKVAWKADGSPVNTGVETTTPSKQSNNKYAASSYLSLTPEQWKSHRSYSCQVTHEGSTVEKTVAPAECSGGGGSEGKSSGSGSESKSTEGKSSGSGSESKSTGGGGSEVQLVESGGGLVQPGGSLKLSCAASGFTFNTYAMNWVRQAPGKGLEWVARIRSKYNNYATYYADSVKDRFTISRDDSKNTAYLQMNNLKTEDTAVYYCVRHGNFGNSYVSWFAYWGQGTLVTVSAASTKGPSVFPLAPSSKSTSGGTAALGCLVKDYFPEPVTVSWNSGALTSGVHTFPAVLQSSGLYSLSSVVTVPSSSLGTQTYICNVNHKPSNTKVDKRVEPKSCDKTHTCPPCPAPEAAGGPSVFLFPPKPKDTLMISRTPEVTCVVVDVSHEDPEVKFNWYVDGVEVHNAKTKPREEQYNSTYRVVSVLTVLHQDWLNGKEYKCKVSNKALPAPIEKTISKAKGQPREPQVYTLPPSREEMTKNQVSLSCAVKGFYPSDIAVEWESNGQPENNYKTTPPVLDSDGSFFLVSKLTVDKSRWQQGNVFSCSVMHEALHNRFTQKSLSLSPG
notes: Heterodimer of one DLL3 chain and one CD3 chain (scFab-Fc, knob-in-hole)
EC50 (read off the curve): ~5 nM

B2: DLL3#17/CD3#1 (bispecific antibody, human IgG1, kappa, lambda, L234A L235A)
chain 1: DIQMTQSPASLAASVGETVTITCRASENIYYSLAWYQQKQGKSPQLLIYNTNSLEDGVPSRFSGSGSGTQYSMKINSMQPEDTATYFCKQAYDFPLTFGAGTKLELKRTVAAPSVFIFPPSDEQLKSGTASVVCLLNNFYPREAKVQWKVDNALQSGNSQESVTEQDSKDSTYSLSSTLTLSKADYEKHKVYACEVTHQGLSSPVTKSFNRGECGGGGSEGKSSGSGSESKSTEGKSSGSGSESKSTGGGGSQIQLQQSGPEVVKPGASVKISCKASGYTFISYYIHWVKQRPGQGLEWIGWIYPGDGSTNNNEKFKGKTTLTADKSSSTAYMLLSSLTSEDSAVYFCARGEGNAMDDWGQGTSVTVSSASTKGPSVFPLAPSSKSTSGGTAALGCLVKDYFPEPVTVSWNSGALTSGVHTFPAVLQSSGLYSLSSVVTVPSSSLGTQTYICNVNHKPSNTKVDKRVEPKSCDKTHTCPPCPAPEAAGGPSVFLFPPKPKDTLMISRTPEVTCVVVDVSHEDPEVKFNWYVDGVEVHNAKTKPREEQYNSTYRVVSVLTVLHQDWLNGKEYKCKVSNKALPAPIEKTISKAKGQPREPQVYTLPPSREEMTKNQVSLWCLVKGFYPSDIAVEWESNGQPENNYKTTPPVLDSDGSFFLYSKLTVDKSRWQQGNVFSCSVMHEALHNHYTQKSLSLSPG
chain 2: EAVVTQEPSLTVSPGGTVTLTCRSSTGAVTTSNYANWVQEKPGQLPRGLIGGTNKRAPWVPARFSGSLLGGKAALTLSGAQPEDEAEYFCALWYSNLWVFGGGTKLTVLGQPKAAPSVTLFPPSSEELQANKATLVCLISDFYPGAVKVAWKADGSPVNTGVETTTPSKQSNNKYAASSYLSLTPEQWKSHRSYSCQVTHEGSTVEKTVAPAECSGGGGSEGKSSGSGSESKSTEGKSSGSGSESKSTGGGGSEVQLVESGGGLVQPGGSLKLSCAASGFTFNTYAMNWVRQAPGKGLEWVARIRSKYNNYATYYADSVKDRFTISRDDSKNTAYLQMNNLKTEDTAVYYCVRHGNFGNSYVSWFAYWGQGTLVTVSAASTKGPSVFPLAPSSKSTSGGTAALGCLVKDYFPEPVTVSWNSGALTSGVHTFPAVLQSSGLYSLSSVVTVPSSSLGTQTYICNVNHKPSNTKVDKRVEPKSCDKTHTCPPCPAPEAAGGPSVFLFPPKPKDTLMISRTPEVTCVVVDVSHEDPEVKFNWYVDGVEVHNAKTKPREEQYNSTYRVVSVLTVLHQDWLNGKEYKCKVSNKALPAPIEKTISKAKGQPREPQVYTLPPSREEMTKNQVSLSCAVKGFYPSDIAVEWESNGQPENNYKTTPPVLDSDGSFFLVSKLTVDKSRWQQGNVFSCSVMHEALHNRFTQKSLSLSPG
notes: as for B1
EC50 (read off the curve): ~1 nM

B3: DLL3#18/CD3#1 (bispecific antibody, human IgG1, kappa, lambda, L234A L235A)
chain 1: DIQMTQSPASLAASVGETVTITCRASENIYYSLAWYQQKQGKSPQLLIYNANSLEDGVPSRFSGSGSGTQYSMKINNMQPEDTATYFCKQAYDVPLTFGAGTKLELKRTVAAPSVFIFPPSDEQLKSGTASVVCLLNNFYPREAKVQWKVDNALQSGNSQESVTEQDSKDSTYSLSSTLTLSKADYEKHKVYACEVTHQGLSSPVTKSFNRGECGGGGSEGKSSGSGSESKSTEGKSSGSGSESKSTGGGGSQVQLQQSGPDLVKPGASVKMSCEASGYTFTAYFIHWVKQKPGQGLEWIGYIDPFNDDTNYNVKFKGKATLTSDTSSSIAYMELSSLTSEDSSFYYCARGTSATLDYWGHGTTLTVSSASTKGPSVFPLAPSSKSTSGGTAALGCLVKDYFPEPVTVSWNSGALTSGVHTFPAVLQSSGLYSLSSVVTVPSSSLGTQTYICNVNHKPSNTKVDKRVEPKSCDKTHTCPPCPAPEAAGGPSVFLFPPKPKDTLMISRTPEVTCVVVDVSHEDPEVKFNWYVDGVEVHNAKTKPREEQYNSTYRVVSVLTVLHQDWLNGKEYKCKVSNKALPAPIEKTISKAKGQPREPQVYTLPPSREEMTKNQVSLWCLVKGFYPSDIAVEWESNGQPENNYKTTPPVLDSDGSFFLYSKLTVDKSRWQQGNVFSCSVMHEALHNHYTQKSLSLSPG
chain 2: EAVVTQEPSLTVSPGGTVTLTCRSSTGAVTTSNYANWVQEKPGQLPRGLIGGTNKRAPWVPARFSGSLLGGKAALTLSGAQPEDEAEYFCALWYSNLWVFGGGTKLTVLGQPKAAPSVTLFPPSSEELQANKATLVCLISDFYPGAVKVAWKADGSPVNTGVETTTPSKQSNNKYAASSYLSLTPEQWKSHRSYSCQVTHEGSTVEKTVAPAECSGGGGSEGKSSGSGSESKSTEGKSSGSGSESKSTGGGGSEVQLVESGGGLVQPGGSLKLSCAASGFTFNTYAMNWVRQAPGKGLEWVARIRSKYNNYATYYADSVKDRFTISRDDSKNTAYLQMNNLKTEDTAVYYCVRHGNFGNSYVSWFAYWGQGTLVTVSAASTKGPSVFPLAPSSKSTSGGTAALGCLVKDYFPEPVTVSWNSGALTSGVHTFPAVLQSSGLYSLSSVVTVPSSSLGTQTYICNVNHKPSNTKVDKRVEPKSCDKTHTCPPCPAPEAAGGPSVFLFPPKPKDTLMISRTPEVTCVVVDVSHEDPEVKFNWYVDGVEVHNAKTKPREEQYNSTYRVVSVLTVLHQDWLNGKEYKCKVSNKALPAPIEKTISKAKGQPREPQVYTLPPSREEMTKNQVSLSCAVKGFYPSDIAVEWESNGQPENNYKTTPPVLDSDGSFFLVSKLTVDKSRWQQGNVFSCSVMHEALHNRFTQKSLSLSPG
notes: as for B1
EC50 (read off the curve): ~1 nM

B4: DLL3#4/CD3#1 (bispecific antibody, human IgG1, kappa, lambda, L234A L235A)
chain 1: not shown
chain 2: EAVVTQEPSLTVSPGGTVTLTCRSSTGAVTTSNYANWVQEKPGQLPRGLIGGTNKRAPWVPARFSGSLLGGKAALTLSGAQPEDEAEYFCALWYSNLWVFGGGTKLTVLGQPKAAPSVTLFPPSSEELQANKATLVCLISDFYPGAVKVAWKADGSPVNTGVETTTPSKQSNNKYAASSYLSLTPEQWKSHRSYSCQVTHEGSTVEKTVAPAECSGGGGSEGKSSGSGSESKSTEGKSSGSGSESKSTGGGGSEVQLVESGGGLVQPGGSLKLSCAASGFTFNTYAMNWVRQAPGKGLEWVARIRSKYNNYATYYADSVKDRFTISRDDSKNTAYLQMNNLKTEDTAVYYCVRHGNFGNSYVSWFAYWGQGTLVTVSAASTKGPSVFPLAPSSKSTSGGTAALGCLVKDYFPEPVTVSWNSGALTSGVHTFPAVLQSSGLYSLSSVVTVPSSSLGTQTYICNVNHKPSNTKVDKRVEPKSCDKTHTCPPCPAPEAAGGPSVFLFPPKPKDTLMISRTPEVTCVVVDVSHEDPEVKFNWYVDGVEVHNAKTKPREEQYNSTYRVVSVLTVLHQDWLNGKEYKCKVSNKALPAPIEKTISKAKGQPREPQVYTLPPSREEMTKNQVSLSCAVKGFYPSDIAVEWESNGQPENNYKTTPPVLDSDGSFFLVSKLTVDKSRWQQGNVFSCSVMHEALHNRFTQKSLSLSPG
notes: as for B1
EC50 (read off the curve): ~1 nM
